Test results taken from doi:10.1101/2020.04.14.041327 (bioRxiv, 2020).

How the values were obtained:
[1] = target: linear M1-linked tri-ubiquitin (UniProt P0CG48); assay: SPR
[2] = target: linear M1-linked tetra-ubiquitin (UniProt P0CG48); assay: SPR
[3] = target: linear M1-linked tri-ubiquitin (UniProt P0CG48); assay: ITC
[4] = target: linear M1-linked tetra-ubiquitin (UniProt P0CG48); assay: ITC
[5] = target: linear M1-linked tri-ubiquitin (UniProt P0CG48); assay: SEC-MALS
[6] = target: linear M1-linked tetra-ubiquitin (UniProt P0CG48); assay: SEC-MALS
SEC-MALS = target: the molecule itself; assay: SEC-MALS

Sequence of linear M1-linked tetra-ubiquitin (P0CG48 1-304): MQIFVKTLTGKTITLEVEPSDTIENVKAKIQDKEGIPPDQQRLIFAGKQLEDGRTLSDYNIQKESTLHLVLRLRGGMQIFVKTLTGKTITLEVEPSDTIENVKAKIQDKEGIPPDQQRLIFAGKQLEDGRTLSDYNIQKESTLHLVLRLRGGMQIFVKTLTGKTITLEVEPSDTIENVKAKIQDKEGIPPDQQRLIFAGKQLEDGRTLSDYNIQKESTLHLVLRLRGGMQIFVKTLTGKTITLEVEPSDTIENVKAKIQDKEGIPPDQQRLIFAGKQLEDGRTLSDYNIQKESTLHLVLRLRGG
Sequence of linear M1-linked tri-ubiquitin (P0CG48 1-228): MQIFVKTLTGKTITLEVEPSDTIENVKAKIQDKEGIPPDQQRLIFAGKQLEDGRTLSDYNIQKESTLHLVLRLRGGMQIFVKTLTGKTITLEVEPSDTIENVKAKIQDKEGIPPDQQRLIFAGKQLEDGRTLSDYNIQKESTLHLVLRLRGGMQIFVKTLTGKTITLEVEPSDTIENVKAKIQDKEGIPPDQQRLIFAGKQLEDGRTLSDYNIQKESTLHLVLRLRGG

B1: Human NEMO 258-350 C347S (NEMO UBAN domain) (domain or fragment)
chain: MQLEDLKQQLQQAEEALVAKQEVIDKLKEEAEQHKIVMETVPVLKAQADIYKADFQAERQAREKLAEKKELLQEQLEQLQREYSKLKASSQES
Kd [1]: 9.6 µM
Kd [2]: 6.4 µM
Kd [3]: 1.6 µM
dH [3]: -4.28 kcal/mol
Kd [4]: 4.1 µM
dH [4]: -4.49 kcal/mol
stoichiometry N [5]: 2 NEMO monomers per poly-ubiquitin
stoichiometry N [6]: 2 NEMO monomers per poly-ubiquitin
binding result (SEC-MALS): binds
